Source: patent US20160017052A1 (Genentech, published 2016)

Tests used:
human factor D [1] = molecular target: T1, human factor D (human, UniProt P00746 26-253); experiment: cell-based or functional assay
human factor D [2] = molecular target: T1, human factor D; experiment: SPR, KD compared with AFD.v14
Experimental: The flow rate was 30 μL/min, the running buffer was HBS-P+, the temperature of analysis was 25° C., real-time reference cell subtraction was employed, and dissociation following factor D injection was followed for 10 minutes. After subtraction of the sensorgram observed for injection of running buffer, data were analyzed according to a 1:1 model using BiaEval software v4.1 (GE Healthcare) to extract the kinetics and affinity constants.

T1 sequence (P00746 26-253 limits assumed): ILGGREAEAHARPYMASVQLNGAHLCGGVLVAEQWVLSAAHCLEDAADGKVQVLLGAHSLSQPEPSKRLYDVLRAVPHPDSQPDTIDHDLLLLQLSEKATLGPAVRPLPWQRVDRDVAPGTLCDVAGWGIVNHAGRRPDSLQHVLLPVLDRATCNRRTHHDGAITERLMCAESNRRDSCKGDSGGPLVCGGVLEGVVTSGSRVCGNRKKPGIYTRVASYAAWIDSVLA

Binder | IC50 (nM) AP Hemolysis (human factor D [1]) | fold decrease in affinity for fD against SIESD.N103S (AFD.v14) (human factor D [2])
AFD.v7 (TM.D92E; VL-D30E:D31S VH-D62E VL-D92E) (Fab, V domains shown) VH: EVQLVQSGPELKKPGASVKVSCKASGYTFTNYGMNWVRQAPGQGLEWMGWINTYTGETTYAEDFKGRFVFSLDTSVSTAYLQISSLKAEDTAVYYCEREGGVNNWGQGTLVTVSS VL: DIQVTQSPSSLSASVGDRVTITCITSTDIESDMNWYQQKPGKVPKLLISGGNTLRPGVPSRFSGSGSGTDFTLTISSLQPEDVATYYCLQSESLPYTFGQGTKVEIKR | 3.8 nM | –
AFD.v15 (SIESD.N103S.D92E; VL-D28S:D30E:D31S:D92E VH-D62E:N103S) (Fab, V domains shown, Fab variant) VH: EVQLVQSGPELKKPGASVKVSCKASGYTFTNYGMNWVRQAPGQGLEWMGWINTYTGETTYAEDFKGRFVFSLDTSVSTAYLQISSLKAEDTAVYYCEREGGVSNWGQGTLVTVSS VL: DIQVTQSPSSLSASVGDRVTITCITSTSIESDMNWYQQKPGKVPKLLISGGNTLRPGVPSRFSGSGSGTDFTLTISSLQPEDVATYYCLQSESLPYTFGQGTKVEIKR | – | 4 fold
AFD.v8 (SIESD; VL-D28S:D30E:D31S VH-D62E) (Fab, V domains shown) VH: EVQLVQSGPELKKPGASVKVSCKASGYTFTNYGMNWVRQAPGQGLEWMGWINTYTGETTYAEDFKGRFVFSLDTSVSTAYLQISSLKAEDTAVYYCEREGGVNNWGQGTLVTVSS VL: DIQVTQSPSSLSASVGDRVTITCITSTSIESDMNWYQQKPGKVPKLLISGGNTLRPGVPSRFSGSGSGTDFTLTISSLQPEDVATYYCLQSDSLPYTFGQGTKVEIKR | 4.2 nM | –
AFD.v14 (SIESD.N103S; VL-D28S:D30E:D31S VH-D62E VH-N103S) (Fab, V domains shown) VH: EVQLVQSGPELKKPGASVKVSCKASGYTFTNYGMNWVRQAPGQGLEWMGWINTYTGETTYAEDFKGRFVFSLDTSVSTAYLQISSLKAEDTAVYYCEREGGVSNWGQGTLVTVSS VL: DIQVTQSPSSLSASVGDRVTITCITSTSIESDMNWYQQKPGKVPKLLISGGNTLRPGVPSRFSGSGSGTDFTLTISSLQPEDVATYYCLQSDSLPYTFGQGTKVEIKR | 4.1 nM | –
